The text below walks through data of the Immune Epitope Database (IEDB).

As a reminder, the IC50 is the midpoint of a concentration-inhibition curve.

Some targets named below: HLA-A*02:03; HLA-A*02:01; HLA-A*02:06; HLA-A*68:02; HLA-A*02:02.
Holding throughout (experiment): IEDB peptide-MHC binding, purified MHC/competitive/radioactivity; ≥ and ≤ were set here for values at or beyond the usual limits of such assays
[1] abbreviates: source organism: Vaccinia virus WR.
Where [2] appears, read: source organism: Influenza A virus.

In the case of RTMPNESRV, the IC50 in the assay with HLA-A*02:03 (setting [1]) worked out at 100 nM; with HLA-A*02:01 (setting [1]) it was 1510 nM; in the assay with HLA-A*02:06 (setting [1]) it was 155 nM; with HLA-A*68:02 (setting [1]), 14 nM; in the assay with HLA-A*02:02 (setting [1]), 140 nM.

As to MLPESDLDKV, the IC50 came to 1770 nM with HLA-A*02:03 (setting [1]); 11 nM in the assay with HLA-A*02:01 (setting [1]); 4.4 nM with HLA-A*02:06 (setting [1]); 196 nM with HLA-A*68:02 (setting [1]); 3.2 nM with HLA-A*02:02 (setting [1]).

Turning to LAYYNSCMLT, the IC50 in the assay with HLA-A*02:03 (setting [1]) came out at 16 nM; with HLA-A*02:01 (setting [1]), 485 nM; with HLA-A*02:06 (setting [1]), 86 nM; in the assay with HLA-A*68:02 (setting [1]) it was 4.9 nM; with HLA-A*02:02 (setting [1]) it was 12 nM.

In the case of KTANNYETI, the IC50 with HLA-A*02:03 (setting [1]) turned out to be 38 nM; with HLA-A*02:01 (setting [1]), 2240 nM; with HLA-A*02:06 (setting [1]) it was 329 nM; with HLA-A*68:02 (setting [1]) it was 1320 nM; in the assay with HLA-A*02:02 (setting [1]) it was 37 nM.

Regarding DQTHIKTIAV, the IC50 came out at 390 nM with HLA-A*02:03 (setting [1]); 650 nM in the assay with HLA-A*02:01 (setting [1]); 1000 nM with HLA-A*02:06 (setting [1]); 404 nM with HLA-A*68:02 (setting [1]); 2170 nM with HLA-A*02:02 (setting [1]).

On to WVMDTLNGI, for which the IC50 with HLA-A*02:03 (setting [1]) worked out at 1 nM; with HLA-A*02:01 (setting [1]) it was 12 nM; with HLA-A*02:06 (setting [1]), 0.73 nM; in the assay with HLA-A*68:02 (setting [1]), 0.44 nM; with HLA-A*02:02 (setting [1]), 9.8 nM.

For the sequence SIPISELSRL, the IC50 in the assay with HLA-A*02:03 (setting [1]) came out at 61 nM; with HLA-A*02:01 (setting [1]) it was 2260 nM; with HLA-A*02:06 (setting [1]), 78 nM; with HLA-A*68:02 (setting [1]), 422 nM; in the assay with HLA-A*02:02 (setting [1]), 252 nM.

As to FIMRNFLRSI, the IC50 stood at 0.12 nM in the assay with HLA-A*02:03 (setting [1]); 0.47 nM in the assay with HLA-A*02:01 (setting [1]); 0.45 nM with HLA-A*02:06 (setting [1]); 131 nM with HLA-A*68:02 (setting [1]); 28 nM in the assay with HLA-A*02:02 (setting [1]).

For the sequence WISFAISCFL, the IC50 in the assay with HLA-A*02:03 (setting [2]) amounted to 355 nM; with HLA-A*02:01 (setting [2]), 3510 nM; with HLA-A*02:06 (setting [2]), 819 nM; with HLA-A*68:02 (setting [2]), 364 nM; in the assay with HLA-A*02:02 (setting [2]) it was 230 nM.

As for LLALQQLEV, the IC50 with HLA-A*02:03 (source organism: SARS-CoV1) stood at 0.29 nM; with HLA-A*02:01 (source organism: SARS-CoV1), 1 nM; with HLA-A*02:06 (source organism: SARS-CoV1), 42 nM; with HLA-A*68:02 (source organism: SARS-CoV1), 83 nM; in the assay with HLA-A*02:02 (source organism: SARS-CoV1), 0.14 nM.

Turning to LVKDESIQL, the IC50 with HLA-A*02:03 (setting [1]) is 649 nM; with HLA-A*02:01 (setting [1]) it was 3150 nM; with HLA-A*02:06 (setting [1]), 1400 nM; with HLA-A*68:02 (setting [1]), 1470 nM; with HLA-A*02:02 (setting [1]) it was 122 nM.

In the case of LLFQLCTFT, the IC50 with HLA-A*02:03 (source organism: SARS-CoV1) stood at 3.8 nM; with HLA-A*02:01 (source organism: SARS-CoV1) it was 833 nM; with HLA-A*02:06 (source organism: SARS-CoV1) it was 11 nM; in the assay with HLA-A*68:02 (source organism: SARS-CoV1), 855 nM; with HLA-A*02:02 (source organism: SARS-CoV1), 22 nM.

With LMDSIFVSTM, the IC50 was found to be 8.1 nM with HLA-A*02:03 (setting [1]); 259 nM with HLA-A*02:01 (setting [1]); 610 nM in the assay with HLA-A*02:06 (setting [1]); 680 nM in the assay with HLA-A*68:02 (setting [1]); 3.7 nM in the assay with HLA-A*02:02 (setting [1]).

For the sequence DVERLQMAGV, the IC50 with HLA-A*02:03 (setting [1]) worked out at 104 nM; in the assay with HLA-A*02:01 (setting [1]) it was 683 nM; with HLA-A*02:06 (setting [1]), 776 nM; with HLA-A*68:02 (setting [1]), 363 nM; with HLA-A*02:02 (setting [1]) it was 215 nM.

For TLLNETAKV, the IC50 in the assay with HLA-A*02:03 (setting [1]) came to 83 nM; with HLA-A*02:01 (setting [1]), 28 nM; with HLA-A*02:06 (setting [1]), 11 nM; with HLA-A*68:02 (setting [1]) it was 1670 nM; in the assay with HLA-A*02:02 (setting [1]), 246 nM.

Regarding GMSIVCIVAA, the IC50 amounted to 231 nM with HLA-A*02:03 (setting [1]); 178 nM with HLA-A*02:01 (setting [1]); 1220 nM in the assay with HLA-A*02:06 (setting [1]); 1860 nM in the assay with HLA-A*68:02 (setting [1]); 161 nM in the assay with HLA-A*02:02 (setting [1]).

Take AILHNIYRL: the IC50 with HLA-A*02:03 (setting [1]) worked out at 814 nM; in the assay with HLA-A*02:01 (setting [1]), 48 nM; with HLA-A*02:06 (setting [1]) it was 44 nM; with HLA-A*68:02 (setting [1]), 2570 nM; with HLA-A*02:02 (setting [1]), 106 nM.

Consider FLAFVVFLL, for which the IC50 with HLA-A*02:03 (source organism: SARS-CoV1) was determined as 88 nM; with HLA-A*02:01 (source organism: SARS-CoV1), 0.24 nM; with HLA-A*02:06 (source organism: SARS-CoV1) it was 2.6 nM; with HLA-A*68:02 (source organism: SARS-CoV1) it was 391 nM; with HLA-A*02:02 (source organism: SARS-CoV1) it was 0.41 nM.

TLIQYRQQL: the IC50 in the assay with HLA-A*02:03 (setting [1]) was 410 nM; with HLA-A*02:01 (setting [1]) it was 134 nM; with HLA-A*02:06 (setting [1]) it was 1880 nM; with HLA-A*68:02 (setting [1]), 725 nM; in the assay with HLA-A*02:02 (setting [1]), 128 nM.

Regarding TIGTIAGGV, the IC50 is 17 nM in the assay with HLA-A*02:03 (setting [1]); 772 nM with HLA-A*02:01 (setting [1]); 1140 nM with HLA-A*02:06 (setting [1]); 70 nM in the assay with HLA-A*68:02 (setting [1]); 298 nM with HLA-A*02:02 (setting [1]).

Turning to QLMYDIINSV, the IC50 with HLA-A*02:03 (setting [1]) worked out at 0.14 nM; with HLA-A*02:01 (setting [1]) it was 0.78 nM; with HLA-A*02:06 (setting [1]), 5.6 nM; with HLA-A*68:02 (setting [1]) it was 165 nM; in the assay with HLA-A*02:02 (setting [1]) it was 1.9 nM.

In the case of MVMCGGSLYV, the IC50 came out at 10 nM with HLA-A*02:03 (source organism: SARS-CoV1); 14 nM with HLA-A*02:01 (source organism: SARS-CoV1); 13 nM with HLA-A*02:06 (source organism: SARS-CoV1); 6.7 nM with HLA-A*68:02 (source organism: SARS-CoV1); 15 nM in the assay with HLA-A*02:02 (source organism: SARS-CoV1).

On to SLTTIGTIA, for which the IC50 in the assay with HLA-A*02:03 (setting [1]) stood at 3.7 nM; with HLA-A*02:01 (setting [1]), 133 nM; in the assay with HLA-A*02:06 (setting [1]), 489 nM; in the assay with HLA-A*68:02 (setting [1]) it was 323 nM; with HLA-A*02:02 (setting [1]), 1 nM.
